Results taken from US20230201308A1, “TREATMENT OF CORONAVIRUS INFECTION WITH […]” (Eiger Biopharmaceuticals, Inc., priority 2020, published 2023).
Where two headings read alike, the source gives them in different places.

How the values were obtained:
[1] = tested on: SARS-CoV-2 (2019-nCoV/USA-WA1/2020); format: cell-based; conditions: HAE pretreated basolaterally 24 hr
[2] = Third trial (TOGETHER): treatment emergent adverse events and drug adherence; format: in vivo, human
From the text: An adverse event (AE) is any adverse change from the participant's baseline (pre-treatment) condition, including intercurrent illness which occurs during the course of the trial, after the consent form has been signed, whether the event is considered related to treatment or not.
A serious adverse event (SAE) is any adverse event that at any dose: • results in death (grade 5 event) • is life-threatening (grade 4 event) • requires inpatient hospitalization or prolongation of existing hospitalization • results in persistent or significant disability or incapacity • is a congenital anomaly/birth defect
Study personnel collected outcome data via in-person, and via telephone or WhatsApp using video-teleconferencing on Days 1, 2, 3, 4, 5, 7, 10, 14, and 28. Adverse events were recorded at the time they occurred. All serious and non-serious adverse events were reported to study personnel as per local regulatory requirements. Reportable adverse events included serious adverse events, adverse events resulting in study medication discontinuation, and adverse events assessed as possibly related to study medication.

[3] = ITT preliminary, n=916 vs placebo 1020
[4] = Treated within 3 days of symptom onset, n=539 vs placebo 586
[5] = Treated within 5 days of symptom onset, n=800 vs placebo 879

B1: pegylated interferon lambda-1a (protein)
chain: MKPTTTGKGCHIGRFKSLSPQELASFKKARDALEESLKLKNWSCSSPVFPGNWDLRLLQVRERPVALEAELALTLKVLEAAAGPALEDVLDQPLHTLHHILSQLQACIQPQPTAGPRPRGRLHHWLHRLQEAPKKESAGCLEASVTFNLFRLLTRDLKYVADGNLSLRTSTHPEST
modifications: PEG
notes: 180 mcg subcutaneous injection
[1]; […]
  SARS-CoV-2 infectious virus production (titer of apical washes, plaque assay): reducing viral load in infected cells
[1]; […];, listed as peg-IFN-λ1
  SARS-CoV-2 infectious virus production (titer of apical washes, plaque assay): potent dose dependent reduction
[2]; [3]
  TEAE, Grade 1, % of patients: (1.7%)
  TEAE, Grade 1, RR (95% CrI) vs placebo: 0.75 (0.40, 1.38)
  TEAE, Grade 2, % of patients: (9%)
  TEAE, Grade 2, RR (95% CrI) vs placebo: 1.00 (0.75, 1.33)
  TEAE, Grade 3, % of patients: (2.2%)
  TEAE, Grade 3, RR (95% CrI) vs placebo: 0.70 (0.40, 1.20)
  TEAE, Grade 4, % of patients: (0.8%)
  TEAE, Grade 4, RR (95% CrI) vs placebo: 1.11 (0.41, 3.05)
  TEAE, Grade 5, % of patients: (0.3%)
  TEAE, Grade 5, RR (95% CrI) vs placebo: 0.88 (0.21, 3.40)
[2]; N = 931
  Number experiencing TEAEs: %: (14.7%)
  Number experiencing TEAEs: n: 137
  Number experiencing possibly treatment-related TEAS: %: (0.4%)
  Number experiencing possibly treatment-related TEAS: n: 4
  Number experiencing serious TEAEs: %: (3.4%)
  Number experiencing serious TEAEs: n: 32
  TEAE, Grade 1: %: (2.9%)
  TEAE, Grade 1: n: 27
  TEAE, Grade 2: %: (9.2%)
  TEAE, Grade 2: n: 86
  TEAE, Grade 3: %: (2.3%)
  TEAE, Grade 3: n: 21
  TEAE, Grade 4: %: (0.9%)
  TEAE, Grade 4: n: 8
  TEAE, Grade 5: %: (0.4%)
  TEAE, Grade 5: n: 4
[2]; N = 931 vs placebo N = 1018
  Number experiencing TEAEs: Probability of Superiority: 88.5
  Number experiencing TEAEs: RR (95% CrI), estimated treatment effect: 0.88 (0.71, 1.08)
  Number experiencing possibly treatment-related TEAS: Probability of Superiority: 82.8
  Number experiencing possibly treatment-related TEAS: RR (95% CrI), estimated treatment effect: 0.59 (0.18, 1.74)
  Number experiencing serious TEAEs: Probability of Superiority: 93.6
  Number experiencing serious TEAEs: RR (95% CrI), estimated treatment effect: 0.72 (0.46, 1.10)
  TEAE, Grade 1: Probability of Superiority: 84.5
  TEAE, Grade 1: RR (95% CrI), estimated treatment effect: 0.78 (0.48, 1.26)
  TEAE, Grade 2: Probability of Superiority: 64.0
  TEAE, Grade 2: RR (95% CrI), estimated treatment effect: 0.95 (0.72, 1.25)
  TEAE, Grade 3: Probability of Superiority: 93.9
  TEAE, Grade 3: RR (95% CrI), estimated treatment effect: 0.66 (0.39, 1.11)
  TEAE, Grade 4: Probability of Superiority: 42.6
  TEAE, Grade 4: RR (95% CrI), estimated treatment effect: 1.09 (0.42, 2.86)
  TEAE, Grade 5: Probability of Superiority: 67.5
  TEAE, Grade 5: RR (95% CrI), estimated treatment effect: 0.76 (0.22, 2.46)
[2]; [4]
  TEAE, Grade 1, % of patients: (0.9%)
  TEAE, Grade 1, RR (95% CrI) vs placebo: 0.53 (0.18, 1.38)
  TEAE, Grade 2, % of patients: (9.8%)
  TEAE, Grade 2, RR (95% CrI) vs placebo: 1.13 (0.78, 1.63)
  TEAE, Grade 3, % of patients: (1.3%)
  TEAE, Grade 3, RR (95% CrI) vs placebo: 0.47 (0.19, 1.05)
  TEAE, Grade 4, % of patients: (0.7%)
  TEAE, Grade 4, RR (95% CrI) vs placebo: 3.01 (0.61, 23.67)
  TEAE, Grade 5, % of patients: (0%)
  TEAE, Grade 5, RR (95% CrI) vs placebo: 0.21 (0.01, 1.64)
[2]; [5]
  TEAE, Grade 1, % of patients: (1.8%)
  TEAE, Grade 1, RR (95% CrI) vs placebo: 0.78 (0.40, 1.51)
  TEAE, Grade 2, % of patients: (8.9%)
  TEAE, Grade 2, RR (95% CrI) vs placebo: 0.95 (0.70, 1.29)
  TEAE, Grade 3, % of patients: (1.9%)
  TEAE, Grade 3, RR (95% CrI) vs placebo: 0.56 (0.30, 1.01)
  TEAE, Grade 4, % of patients: (0.8%)
  TEAE, Grade 4, RR (95% CrI) vs placebo: 1.99 (0.58, 7.88)
